Results published in the supplement of paper PMC7877785.
± gives the uncertainty stated by the source.

Test: self-splicing fitness, log relative to wild type (ln ratio); higher = more splicing; Tetrahymena group I intron in knt gene, E. coli kanamycin selection, DiMSum; sequences stand for … in CUCUCU…GGAGGGAAAAGUUAUCAGGCAUGCACCUGGUAGCUAGUCUUUAAACCAAUAGAUUGCAUCGGUUUAAAAGGCAAGACCGUCAAAUUGCGGGAAAGGGGUCAACAGCCGUUCAGUACCAAGUCUCAGGGGAAACUUUGAGAUGGCCUUGCAAAGGGUAUGGUAAUAAGCUGACGGACAUGGUCCUAACCACGCAGCCAAGUCCUAAGUCAACAGAUCUUCUGUUGAUAUGGAUGCAGUUCACAGACUAAAUGUCGGUCGGGGAAGAUGUAUUCUUCUCAUAAGAUAUAGUCGGACCUCUCCUUAAUGGGAGCUAGCGGAUGAAGUGAUGCAACACUGGAGCCGCUGGGAACUAAUUUGUAUGCGAAAGUAUAUUGAUUAGUUUUGGAGUACUCGUGGUCG
Outline: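 Six replicate transformations of E. coli BL21(DE3) with a pET-22b(+) library were grown overnight at 37°C or 30°C. The library randomised all eight P1ex-region intron nucleotides, the intron lying in the knt kanamycin-resistance gene, and plates were LB agar with or without 25 μg/mL kanamycin plus 100 μg/mL carbenicillin, 50 μM IPTG and 0.2% rhamnose. Pooled colonies were amplicon-sequenced on an Illumina HiSeq 2500, and fitness is the DiMSum error-weighted combination of wild-type-normalised replicate fold changes, kanamycin versus none.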

Sequence	self-splicing fitness (ln) (30 °C)	self-splicing fitness (ln) (37 °C)
UACCAGCAAUAUUACGUGCA	-0.43 ± 0.065	0.246 ± 0.09
CCGGAGCAAUAUUACGACUG	-0.64 ± 0.14	-0.428 ± 0.22
GCAAAGCAAUAUUACGUUGA	-1.67 ± 0.088	-1.03 ± 0.094
CCACAGCAAUAUUACGCAUC	-3.23 ± 0.19	-2.31 ± 0.2
AAUGAGCAAUAUUACGGGGU	-2.97 ± 0.18	-2.29 ± 0.21
CUGGAGCAAUAUUACGAGCG	-1.05 ± 0.094	-0.179 ± 0.11
CACUAGCAAUAUUACGAAUA	-3.16 ± 0.37	-2.33 ± 0.18
CAGAAGCAAUAUUACGAGGG	-2.99 ± 0.23	-1.18 ± 0.31
GAGCAGCAAUAUUACGCCAG	-2.49 ± 0.42	-2.85 ± 0.34
CUAGAGCAAUAUUACGCCCG	-0.259 ± 0.2	0.187 ± 0.18
CCGAAGCAAUAUUACGCCAU	-4.11 ± 0.27	-3.25 ± 0.21
GACAAGCAAUAUUACGACUU	-0.00142 ± 0.071	0.381 ± 0.088
ACGAAGCAAUAUUACGCGCG	-0.867 ± 0.12	-0.486 ± 0.18
AGCGAGCAAUAUUACGAUUG	-4.39 ± 0.42	-1.52 ± 0.34
GGCCAGCAAUAUUACGGAAG	-1.79 ± 0.082	-0.69 ± 0.11
AUGGAGCAAUAUUACGGGCC	-2.63 ± 0.39	
UUAGAGCAAUAUUACGGGGU	-2.83 ± 0.3	-2.06 ± 0.46
GUAAAGCAAUAUUACGACCU	0.443 ± 0.18	0.00961 ± 0.19
CCGGAGCAAUAUUACGAUCG	-0.502 ± 0.12	0.299 ± 0.16
AGGGAGCAAUAUUACGAGGU	-2.64 ± 0.17	-3.55 ± 0.31
GUAGAGCAAUAUUACGGGAU	-2.01 ± 0.098	-1.19 ± 0.12
AUACAGCAAUAUUACGGUAA	-0.731 ± 0.094	-0.502 ± 0.093
UAAUAGCAAUAUUACGUUGC	-3.64 ± 0.23	-2.71 ± 0.31
UCGGAGCAAUAUUACGGUAC	-3.19 ± 0.29	-3.59 ± 0.36
CCCCAGCAAUAUUACGGUCC	-3.86 ± 0.18	-2.9 ± 0.27
AGAGAGCAAUAUUACGGACG	-2.64 ± 0.3	-1.61 ± 0.44

Sequence	self-splicing fitness (ln) (30 °C)	self-splicing fitness (ln) (37 °C)
UCCGAGCAAUAUUACGUAGA	-2.09 ± 0.14	-1.42 ± 0.2
GAGCAGCAAUAUUACGCCUU	-3.8 ± 0.32	-1.32 ± 0.19
AUCGAGCAAUAUUACGCCCU	-3.05 ± 0.36	
UACAAGCAAUAUUACGAGCU	-3.19 ± 0.12	-1.58 ± 0.11
GUAAAGCAAUAUUACGCCUU	-1.57 ± 0.11	0.238 ± 0.15
CGGUAGCAAUAUUACGAACU	-1.3 ± 0.17	-0.755 ± 0.17
AUCUAGCAAUAUUACGAAUU	-2.94 ± 0.18	-1.74 ± 0.19
AUUCAGCAAUAUUACGUCAU	-0.863 ± 0.059	0.0811 ± 0.071
CAGUAGCAAUAUUACGGUCG	-0.204 ± 0.093	0.084 ± 0.1
CUACAGCAAUAUUACGAACG	0.241 ± 0.11	0.6 ± 0.14
GUGGAGCAAUAUUACGGAUU	-3.15 ± 0.47	
GGGCAGCAAUAUUACGGACC	-0.717 ± 0.25	0.0103 ± 0.36
CGGGAGCAAUAUUACGGCCU	-3.25 ± 0.31	-2.88 ± 0.44
GCUCAGCAAUAUUACGAAAU	-1.13 ± 0.11	-0.319 ± 0.12
CUCCAGCAAUAUUACGCUAA	-3.28 ± 0.27	-2.62 ± 0.42
AGGAAGCAAUAUUACGCCUU	-2.67 ± 0.2	-0.955 ± 0.18
CAGUAGCAAUAUUACGGGAG	-2.37 ± 0.18	-1.91 ± 0.27
CAUCAGCAAUAUUACGUAAU	-2.56 ± 0.09	-1.4 ± 0.1
UAAUAGCAAUAUUACGUGGC	-3.76 ± 0.35	-2.88 ± 0.43
UCUCAGCAAUAUUACGGCGG	-2.46 ± 0.16	-1.01 ± 0.18
GAUUAGCAAUAUUACGGAAA	-2.25 ± 0.29	-2.19 ± 0.22
GGCUAGCAAUAUUACGUCGG	-3.95 ± 0.29	-2.61 ± 0.26
UCCUAGCAAUAUUACGGCCA	-3.17 ± 0.15	-1.74 ± 0.11
UGUGAGCAAUAUUACGAUGA	-2.75 ± 0.17	-2.21 ± 0.17
GUGAAGCAAUAUUACGGUUC	-2.13 ± 0.12	-1.19 ± 0.14
UCUGAGCAAUAUUACGUCGG	-0.746 ± 0.093	-0.184 ± 0.12

Sequence	self-splicing fitness (ln) (30 °C)	self-splicing fitness (ln) (37 °C)
GCGAAGCAAUAUUACGAGUA	-2.13 ± 0.3	-1.28 ± 0.19
CAUGAGCAAUAUUACGUGUG	-3.67 ± 0.17	-3.09 ± 0.16
UGCCAGCAAUAUUACGCCAG	-3.29 ± 0.18	-2.39 ± 0.27
CGAAAGCAAUAUUACGACGG	0.0482 ± 0.089	0.569 ± 0.12
CUCCAGCAAUAUUACGAUAC	-3.57 ± 0.31	-1.94 ± 0.32
CGUCAGCAAUAUUACGUAUG	-0.163 ± 0.12	0.188 ± 0.13
CACCAGCAAUAUUACGACAU	-3.726 ± 0.018	-2.66 ± 0.035
CCGGAGCAAUAUUACGUACC		-0.504 ± 0.41
CCUUAGCAAUAUUACGCAUG	-3.78 ± 0.19	-2.14 ± 0.18
UCGGAGCAAUAUUACGGCUU	-3.05 ± 0.32	-1.45 ± 0.35
AAAGAGCAAUAUUACGGCAU	-1.83 ± 0.087	-0.726 ± 0.097
AGAUAGCAAUAUUACGUGAG	-1.89 ± 0.072	-0.685 ± 0.08
UUAGAGCAAUAUUACGCACA	-0.745 ± 0.08	-0.314 ± 0.11
GGCUAGCAAUAUUACGCAAG	-4 ± 0.46	-0.63 ± 0.22
GGGGAGCAAUAUUACGCAUA	-3.29 ± 0.48	-2.28 ± 0.32
UAGGAGCAAUAUUACGCCGA	-2.76 ± 0.21	-0.577 ± 0.27
GCCGAGCAAUAUUACGACCC	-2.25 ± 0.34	-0.208 ± 0.39
UUGUAGCAAUAUUACGGGCU	-2.88 ± 0.29	-1.62 ± 0.22
CUAUAGCAAUAUUACGCGUA	-1.43 ± 0.31	-2.86 ± 0.31
UGGCAGCAAUAUUACGUAAC	-3.2 ± 0.22	-2.16 ± 0.26
GCAGAGCAAUAUUACGAGAG	-3 ± 0.47	-1.95 ± 0.32
CAAAAGCAAUAUUACGGGCG	-0.0633 ± 0.084	0.608 ± 0.11
GUCCAGCAAUAUUACGUUGG	-3.27 ± 0.15	-2.13 ± 0.17
GGCCAGCAAUAUUACGCUGA	-0.636 ± 0.063	-0.331 ± 0.074
ACCUAGCAAUAUUACGUUGU	-1.79 ± 0.066	-1.12 ± 0.082
